Results published in IntAct's records for PubMed 20739938.

B1: Regulator of chromosome condensation (Homo sapiens), P18754 (parent)
chain: MSPKRIAKRRSPPADAIPKSKKVKVSHRSHSTEPGLVLTLGQGDVGQLGLGENVMERKKPALVSIPEDVVQAEAGGMHTVCLSKSGQVYSFGCNDEGALGRDTSVEGSEMVPGKVELQEKVVQVSAGDSHTAALTDDGRVFLWGSFRDNNGVIGLLEPMKKSMVPVQVQLDVPVVKVASGNDHLVMLTADGDLYTLGCGEQGQLGRVPELFANRGGRQGLERLLVPKCVMLKSRGSRGHVRFQDAFCGAYFTFAISHEGHVYGFGLSNYHQLGTPGTESCFIPQNLTSFKNSTKSWVGFSGGQHHTVCMDSEGKAYSLGRAEYGRLGLGEGAEEKSIPTLISRLPAVSSVACGASVGYAVTKDGRVFAWGMGTNYQLGTGQDEDAWSPVEMMGKQLENRVVLSVSSGGQHTVLLVKDKEQS

Variants of: B1
Conditions: with h2b11, P02281

| effect of a mutation on the interaction | Variant |
| --- | --- |
| disrupting interaction | MSPKRIAKRRSPPADAIPKSKKVKVSHRSHSTEPGLVLTLGQGDVGQLGLGENVMERKKPALVSIPEDVVQAEAGGMHTVCLSKSGQVYSFGCNDEGALGRDTSVEGSEMVPGKVELQEKVVQVSAGDSHTAALTDDGRVFLWGSFRDNNGVIGLLEPMKKSMVPVQVQLDVPVVKVASGNDHLVMLTADGDLYTLGCGEQGQLGRVPELFANRGGRQGLERLLVPKCVMLKSRGSAGHVRFQDAFCGAYFTFAISHEGHVYGFGLSNYHQLGTPGTESCFIPQNLTSFKNSTKSWVGFSGGQHHTVCMDSEGKAYSLGRAEYGRLGLGEGAEEKSIPTLISRLPAVSSVACGASVGYAVTKDGRVFAWGMGTNYQLGTGQDEDAWSPVEMMGKQLENRVVLSVSSGGQHTVLLVKDKEQS [R237A] |
| disrupting interaction | MSPKRIAKRRSPPADAIPKSKKVKVSHRSHSTEPGLVLTLGQGDVGQLGLGENVMERKKPALVSIPEDVVQAEAGGMHTVCLSKSGQVYSFGCNDEGALGRDTSVEGSEMVPGKVELQEKVVQVSAGDSHTAALTDDGRVFLWGSFRDNNGVIGLLEPMKKSMVPVQVQLDVPVVKVASGNDHLVMLTADGDLYTLGCGEQGQLGRVPELFANRGGRQGLERLLVPKCVMLASAGSAGHVRFQDAFCGAYFTFAISHEGHVYGFGLSNYHQLGTPGTESCFIPQNLTSFKNSTKSWVGFSGGQHHTVCMDSEGKAYSLGRAEYGRLGLGEGAEEKSIPTLISRLPAVSSVACGASVGYAVTKDGRVFAWGMGTNYQLGTGQDEDAWSPVEMMGKQLENRVVLSVSSGGQHTVLLVKDKEQS [K232A;R234A;R237A] |

More lines, now with the values behind:

| Variant | effect of a mutation on the interaction |
| --- | --- |
| MSPKRIAKRRSPPADAIPKSKKVKVSHRSHSTEPGLVLTLGQGDVGQLGLGENVMERKKPALVSIPEDVVQAEAGGMHTVCLSKSGQVYSFGCNDEGALGRDTSVEGSEMVPGKVELQEKVVQVSAGDSHTAALTDDGRVFLWGSFRDNNGVIGLLEPMKKSMVPVQVQLDVPVVKVASGNDHLVMLTADGDLYTLGCGEQGQLGRVPELFANRGGRQGLERLLVPKCVMLASRGSRGHVRFQDAFCGAYFTFAISHEGHVYGFGLSNYHQLGTPGTESCFIPQNLTSFKNSTKSWVGFSGGQHHTVCMDSEGKAYSLGRAEYGRLGLGEGAEEKSIPTLISRLPAVSSVACGASVGYAVTKDGRVFAWGMGTNYQLGTGQDEDAWSPVEMMGKQLENRVVLSVSSGGQHTVLLVKDKEQS [K232A] | disrupting interaction |
| MSPKRIAKRRSPPADAIPKSKKVKVSHRSHSTEPGLVLTLGQGDVGQLGLGENVMERKKPALVSIPEDVVQAEAGGMHTVCLSKSGQVYSFGCNDEGALGRDTSVEGSEMVPGKVELQEKVVQVSAGDSHTAALTDDGRVFLWGSFRDNNGVIGLLEPMKKSMVPVQVQLDVPVVKVASGNDHLVMLTADGDLYTLGCGEQGQLGRVPELFANRGGRQGLERLLVPKCVMLKSAGSRGHVRFQDAFCGAYFTFAISHEGHVYGFGLSNYHQLGTPGTESCFIPQNLTSFKNSTKSWVGFSGGQHHTVCMDSEGKAYSLGRAEYGRLGLGEGAEEKSIPTLISRLPAVSSVACGASVGYAVTKDGRVFAWGMGTNYQLGTGQDEDAWSPVEMMGKQLENRVVLSVSSGGQHTVLLVKDKEQS [R234A] | disrupting interaction |
